Patent US20190276796A1 (Seagen, published 2019)

What was measured:
[1] = target: T1, murine FcγRIV (murine, UniProt A0A0B4J1G0 21-249); experiment: competition flow cytometry on CHO DG-44 cells expressing murine FcγRIV; competitor 200 nmol/L Alexa Fluor 488 labeled anti-CD70 IgG1
T1 construct: also called muFcγRIV; murine Fcγ receptor (CD16)
T1 sequence: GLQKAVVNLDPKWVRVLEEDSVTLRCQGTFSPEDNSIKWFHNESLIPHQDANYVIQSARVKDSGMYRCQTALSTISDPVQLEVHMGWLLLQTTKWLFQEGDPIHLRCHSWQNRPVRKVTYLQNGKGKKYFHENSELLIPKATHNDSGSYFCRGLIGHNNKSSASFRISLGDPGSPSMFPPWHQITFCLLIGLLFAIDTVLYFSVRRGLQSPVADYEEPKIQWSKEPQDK

[2] = target: T2, human FcγRIIIA V158 (human, UniProt P08637 17-254); experiment: competition flow cytometry on CHO DG-44 cells expressing human FcγRIIIA V158; competitor 50 nmol/L Alexa Fluor 488 labeled anti-CD70 IgG1
T2 construct: whole, on cells; also called huFcγRIIIA V158; human Fcγ receptor (CD16)
T2 sequence (P08637 17-254 F176V): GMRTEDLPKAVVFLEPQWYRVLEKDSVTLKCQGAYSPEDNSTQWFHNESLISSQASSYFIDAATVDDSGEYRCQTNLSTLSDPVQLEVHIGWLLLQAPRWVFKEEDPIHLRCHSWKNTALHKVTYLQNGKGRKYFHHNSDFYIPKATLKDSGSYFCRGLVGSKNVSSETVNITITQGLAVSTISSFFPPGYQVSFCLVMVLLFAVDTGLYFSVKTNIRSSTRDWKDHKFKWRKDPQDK

B1: control h1F6 antibody (humanized IgG1 anti-CD70 monoclonal antibody, from CHO DG44 cells cultured without fucose analog; core fucosylated) (antibody)
chain 1: QVQLVQSGAEVKKPGASVKVSCKASGYTFTNYGMNWVRQAPGQGLKWMGWINTYTGEPTYADAFKGRVTMTRDTSISTAYMELSRLRSDDTAVYYCARDYGDYGMDYWGQGTTVTVSSASTKGPSVFPLAPCSRSTSESTAALGCLVKDYFPEPVTVSWNSGALTSGVHTFPAVLQSSGLYSLSSVVTVPSSNFGTQTYTCNVDHKPSNTKVDKTVERKCCVECPPCPAPPVAGPSVFLFPPKPKDTLMISRTPEVTCVVVDVSHEDPEVQFNWYVDGVEVHNAKTKPREEQFNSTFRVVSVLTVVHQDWLNGKEYKCKVSNKGLPAPIEKTISKTKGQPREPQVYTLPPSREEMTKNQVSLTCLVKGFYPSDIAVEWESNGQPENNYKTTPPMLDSDGSFFLYSKLTVDKSRWQQGNVFSCSVMHEALHNHYTQKSLSLSPGK
chain 2: DIVMTQSPDSLAVSLGERATINCRASKSVSTSGYSFMHWYQQKPGQPPKLLIYLASNLESGVPDRFSGSGSGTDFTLTISSLQAEDVAVYYCQHSREVPWTFGQGTKVEIKRTVAAPSVFIFPPSDEQLKSGTASVVCLLNNFYPREAKVQWKVDNALQSGNSQESVTEQDSKDSTYSLSSTLTLSKADYEKHKVYACEVTHQGLSSPVTKSFNRGEC
Binder B1 has an EC50 [1] of 369 nM and an EC50 [2] of 113 nM.
